Data as given in patent EP4248993A1 (Charité - Universitätsmedizin Berlin, dated 2023).

Target: MERS-CoV RBD Twin-Strep His (wild type, G372-L588) (MERS-CoV)
Assay: serum pull-down with RBD-TwinStrep on streptavidin magnetic beads

B1: circulating mouse DPP4 (from serum) (receptor)
chain: SRRTYSLADYLKSTFRVKSYSLWWVSDFEYLYKQENNILLLNAEHGNSSIFLENSTFESFGYHSVSPDRLFVLLEYNYVKQWRHSYTASYNIYDVNKRQLITEEKIPNNTQWITWSPEGHKLAYVWKNDIYVKVEPHLPSHRITSTGEENVIYNGITDWVYEEEVFGAYSALWWSPNNTFLAYAQFNDTGVPLIEYSFYSDESLQYPKTVWIPYPKAGAVNPTVKFFIVNIDSLSSSSSAAPIQIPAPASVARGDHYLCDVVWATEERISLQWLRRIQNYSVMAICDYDKINLTWNCPSEQQHVEMSTTGWVGRFRPAEPHFTSDGSSFYKIISDKDGYKHICHFPKDKKDCTFITKGAWEVISIEALTSDYLYYISNQYKEMPGGRNLYKIQLTDHTNVKCLSCDLNPERCQYYAVSFSKEAKYYQLGCWGPGLPLYTLHRSTDHKELRVLEDNSALDRMLQDVQMPSKKLDFIVLNETRFWYQMILPPHFDKSKKYPLLLDVYAGPCSQKADASFRLNWATYLASTENIIVASFDGRGSGYQGDKIMHAINRRLGTLEVEDQIEAARQFVKMGFVDSKRVAIWGWSYGGYVTSMVLGSGSGVFKCGIAVAPVSRWEYYDSVYTERYMGLPIPEDNLDHYRNSTVMSRAEHFKQVEYLLIHGTADDNVHFQQSAQISKALVDAGVDFQAMWYTDEDHGIASSTAHQHIYSHMSHFLQQCFSLH
binding result: no binding
